Experimental data: US20140322163A1 (published 2014)
Substitutions are numbered along the chain they refer to. Numbers in names are those of the source.

Columns and labels:
Assay in all cases: BLI
RSC3 = biological target: RSC3
YU2_FL = biological target: YU2_FL
ZM109_FL = biological target: ZM109_FL

B1: G54A (heavy chain) (antibody, V domains shown)
VH: QVQLVQSGGQMKKPGESMRISCRASGYEFIDCTLNWIRLAPGKRPEWMGWLKPRAGAVNYARPLQGRVTMTRDVYSDTAFLELRSLTVDDTAVYFCTRGKNCDYNWDFEHWGRGTPVIVSS
VL: EIVLTQSPGTLSLSPGETAIISCRTSQYGSLAWYQQRPGQAPRLVIYSGSTRAAGIPDRFSGSRWGPDYNLTISNLESGDFGVYYCQQYEFFGQGTKVQVDI
Kd (RSC3): 2.64 nM | Kd (YU2_FL): 6.51 nM | Kd (ZM109_FL): 76 nM

B2: V3A (light chain) (antibody, V domains shown)
VH: B1 VH with A55G
VL: B1 VL with V3A
Kd (RSC3): 6.09 nM | Kd (YU2_FL): 27.6 nM | Kd (ZM109_FL): 54.7 nM
